Measurements: the RNAGym collection of RNA variant scans (doi:10.7554/elife.80360)

B1: Hairpin Ribozyme (parent)
chain: GUCCUCUUUCACGUGCGCGUGAAAGAGAGAAGUGAACCAGAGAAACACACGUUGUGGUAUAUUACCUGGUA

Variants of: B1
Assay: self-cleavage, relative activity (ratio to wild type); higher = more cleavage; co-transcriptional

Row | Variant | self-cleavage
1 | GUCCUCUUUCACGUGCGCGUAAAAGAGAGAAGUGAACCAGAGAAACUCACGUUGUGGUAUAUUACCUGGUA [G21A A47U] | 0.162
2 | GUCCUCUUUCACGUGCGCGGGAAACAGAGAAGUGAACCAGAGAAACACACGUUGUGGUAUAUUACCUGGUA [U20G G25C] | 0.643
3 | GUCCUCUUUCACGUGCGCGUAAAAGAGAGAAGUGAACCAGAGAAACACACGUUGUGGUAUUUUACCUGGUA [G21A A61U] | 0.18
4 | GUCCUCUUUCACGUGCGCGUAAAAGAGAGAAGUGAACCAGAGAAACACACGUUGUGGUAUGUUACCUGGUA [G21A A61G] | 0.116
5 | GUCCUCUUUCACGUGCGCGUAAAAGAGAGAAGUGAACCAGAGAAACACACGUUGUGGUAUAUUACUUGGUA [G21A C66U] | 0.447
6 | GUCCUCUUUCACGUGCGCGGGAAAGAGAGAAGUGAACCAGACAAACACACGUUGUGGUAUAUUACCUGGUA [U20G G42C] | 0.206
7 | GUCCUCUUUCACGUGCGCGGGAAAGAGAGAAGUGAACCAGAUAAACACACGUUGUGGUAUAUUACCUGGUA [U20G G42U] | 0.245
8 | GUCCUCUUUCACGUGCGCGUAAAAGAGAGAAGUGAACCAGAGAAACACAUGUUGUGGUAUAUUACCUGGUA [G21A C50U] | 0.371
9 | GUCCUCUUUCACGUGCGCGGGAAAGAGAGAAGUGAACCAGAGAAACAAACGUUGUGGUAUAUUACCUGGUA [U20G C48A] | 0.203
10 | GUCCUCUUUCACGUGCGCGUAAAAGAGAGAUGUGAACCAGAGAAACACACGUUGUGGUAUAUUACCUGGUA [G21A A31U] | 0.0982
11 | GUCCUCUUUCACGUGCGCGGGAAAGAGAGAAGGGAACCAGAGAAACACACGUUGUGGUAUAUUACCUGGUA [U20G U33G] | 0.11
12 | GUCCUCUUUCACGUGCGCGGGAAAGAGAGAAGAGAACCAGAGAAACACACGUUGUGGUAUAUUACCUGGUA [U20G U33A] | 0.158
13 | GUCCUCUUUCACGUGCGCGGGAAAGAGAGAAGUGAAGCAGAGAAACACACGUUGUGGUAUAUUACCUGGUA [U20G C37G] | 0.395
14 | GUCCUCUUUCACGUGCGCGGGAAAGAGAGAAGUGAAUCAGAGAAACACACGUUGUGGUAUAUUACCUGGUA [U20G C37U] | 0.594
15 | GUCCUCUUUCACGUGCGCGGGAAAGAGAGAAGUGAACCAGAGAAACACACGUUGUGGUAUAUUGCCUGGUA [U20G A64G] | 0.511
16 | GUCCUCUUUCACGUGCGCGGGAAAGACAGAAGUGAACCAGAGAAACACACGUUGUGGUAUAUUACCUGGUA [U20G G27C] | 0.165
17 | GUCCUCUUUCACGUGCGCGGGAAAGAGAGAAGUGAACCAGAGAAACACACGUUGUGGCAUAUUACCUGGUA [U20G U58C] | 0.826
18 | GUCCUCUUUCACGUGCGCGGGAAAGAGAGAAGUGAACCAGAGAAACACACGUUGUGGUAUAUUACCUUGUA [U20G G68U] | 0.297
19 | GUCCUCUUUCACGUGCGCGUAAAAGAGAGAAGUGAACCAGAGAAACACACGUUGUGGUAUAUUUCCUGGUA [G21A A64U] | 0.178

Row | Variant | self-cleavage
20 | GUCCUCUUUCACGUGCGCGUAAAAGAGAGAAGUGAACCAGAGAAACACACGUUGUGGUAUAUUGCCUGGUA [G21A A64G] | 0.418
21 | GUCCUCUUUCACGUGCGCGGGAAAGAGAGAAGUGAACCAGAGAAACACACUUUGUGGUAUAUUACCUGGUA [U20G G51U] | 0.916
22 | GUCCUCUUUCACGUGCGCGGGAAAGAGAGAAGUGAACCAGAGAAACACACAUUGUGGUAUAUUACCUGGUA [U20G G51A] | 0.909
23 | GUCCUCUUUCACGUGCGCGGGAAAGAGAGAAGUGAACCAGAGAAACACACGUUGUGGUAUGUUACCUGGUA [U20G A61G] | 0.257
24 | GUCCUCUUUCACGUGCGCGUAAAAGGGAGAAGUGAACCAGAGAAACACACGUUGUGGUAUAUUACCUGGUA [G21A A26G] | 0.658
25 | GUCCUCUUUCACGUGCGCGUAAAAGUGAGAAGUGAACCAGAGAAACACACGUUGUGGUAUAUUACCUGGUA [G21A A26U] | 0.525
26 | GUCCUCUUUCACGUGCGCGUAAAAGAGAGAAGUGAACCAGAGAAACACGCGUUGUGGUAUAUUACCUGGUA [G21A A49G] | 0.469
27 | GUCCUCUUUCACGUGCGCGUAAAAGAGAGAAGUGAACCAGAGAAACACCCGUUGUGGUAUAUUACCUGGUA [G21A A49C] | 0.233
28 | GUCCUCUUUCACGUGCGCGGGAAAGAGAGAAGUGAACCAGAGAAACACACGUUGUGGUAUAUUACCCGGUA [U20G U67C] | 0.186
29 | GUCCUCUUUCACGUGCGCGGGAAAGAGAGAAGUGAACCAGAGAAACACACGUUGUGGUAUAUUACCAGGUA [U20G U67A] | 0.241
30 | GUCCUCUUUCACGUGCGCGUAAAAGAGAGAAGUGAACCAGAGAAACACACGUUGUGGUAUAUUAUCUGGUA [G21A C65U] | 0.147
31 | GUCCUCUUUCACGUGCGCGUAAAAGAGAGAAGUGAACCAGAGAAACACACGUUGUGGUAUAUUAACUGGUA [G21A C65A] | 0.861
32 | GUCCUCUUUCACGUGCGCGUAAAAGAGAGAAGUGAACCAGAGAAACACACGUUGUGGUAUAUUAGCUGGUA [G21A C65G] | 0.158
33 | GUCCUCUUUCACGUGCGCGUAAAAGAGGGAAGUGAACCAGAGAAACACACGUUGUGGUAUAUUACCUGGUA [G21A A28G] | 0.979
34 | GUCCUCUUUCACGUGCGCGUAAAAGAGCGAAGUGAACCAGAGAAACACACGUUGUGGUAUAUUACCUGGUA [G21A A28C] | 0.472
35 | GUCCUCUUUCACGUGCGCGUAAAAGAGAGAAGUGAACAAGAGAAACACACGUUGUGGUAUAUUACCUGGUA [G21A C38A] | 0.208
36 | GUCCUCUUUCACGUGCGCGUAAAAGAGAGAAGUGAACGAGAGAAACACACGUUGUGGUAUAUUACCUGGUA [G21A C38G] | 0.239
37 | GUCCUCUUUCACGUGCGCGGGAAAGAGAGAAGUGAACCAGAGAAACACACGGUGUGGUAUAUUACCUGGUA [U20G U52G] | 0.772
38 | GUCCUCUUUCACGUGCGCGUAAAAGAGAGAAGUGAACCAGAGAAACACACGUUGUGGUCUAUUACCUGGUA [G21A A59C] | 0.13
